Data taken from patent US10738094B2, “Peptides and combination of peptides for use in immunotherapy against ovarian cancer and other cancers” (immatics biotechnologies GmbH, priority 2015, dated 2020).

Target: HLA-A*02:01 (Homo sapiens, UniProt P04439, D140Y/D185E/D98H/E176V/E277Q/G131W/G231S/I119V/I121R/I166T/I218V/L300P/L318F/N151K/N90K/P208A/P217A/Q86G/Q94H/R138H/R169H/T345S)
Assay: MHC binding assay (UV-ligand exchange, beta2m ELISA)
Conditions: binding to HLA-A*02:01 ranged by peptide exchange yield (UV-ligand exchange, β2m ELISA)
Outline: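 UV-cleavable ligand in peptide-MHC complexes was exchanged for test peptide. Exchange yield came from an ELISA on streptavidin-captured complexes diluted 100 fold, detecting β2m with HRP anti-β2m (2 ug/ml, 1 h, 37° C.), TMB, A450.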

Row | Substance | Peptide exchange
1 | 544 (LLWDVPAPSL; listed as Homo sapiens) [compound 544] | “+++” (≥50 = +++)
2 | 545 (LLADLLHNV; listed as Homo sapiens) [compound 545] | “+++” (≥50 = +++)
3 | 546 (VMIAGKVAVV; listed as Homo sapiens) [compound 546] | “+++” (≥50 = +++)
4 | 547 (TLDITPHTV; listed as Homo sapiens) [compound 547] | “+++” (≥50 = +++)
5 | 548 (ALWENPESGEL; listed as Homo sapiens) [compound 548] | “++” (≥20% = ++)
6 | 549 (AMLENASDIKL; listed as Homo sapiens) [compound 549] | “+++” (≥50 = +++)
7 | 550 (FLYDEIEAEVNL; listed as Homo sapiens) [compound 550] | “+++” (≥50 = +++)
8 | 551 (KLYESLLPFA; listed as Homo sapiens) [compound 551] | “+++” (≥50 = +++)
9 | 552 (GLLDLPFRVGV; listed as Homo sapiens) [compound 552] | “++++” (≥75% = ++++)
10 | 553 (SLLNQDLHWSL; listed as Homo sapiens) [compound 553] | “++++” (≥75% = ++++)
11 | 554 (LLMPSSEDLLL; listed as Homo sapiens) [compound 554] | “+++” (≥50 = +++)
12 | 555 (YVLEGLKSV; listed as Homo sapiens) [compound 555] | “+++” (≥50 = +++)
13 | 556 (FLTDLEDLTL; listed as Homo sapiens) [compound 556] | “+++” (≥50 = +++)
14 | 557 (KLYDDMIRL; listed as Homo sapiens) [compound 557] | “+++” (≥50 = +++)
15 | 558 (GLLENIPRV; listed as Homo sapiens) [compound 558] | “+++” (≥50 = +++)
16 | 559 (VTVPPGPSL; listed as Homo sapiens) [compound 559] | “++” (≥20% = ++)
17 | 560 (ALWDIETGQQTTT; listed as Homo sapiens) [compound 560] | “+++” (≥50 = +++)
18 | 561 (YLQLTQSEL; listed as Homo sapiens) [compound 561] | “+++” (≥50 = +++)
19 | 562 (YLEELPEKLKL; listed as Homo sapiens) [compound 562] | “+++” (≥50 = +++)
20 | 563 (WLLPYNGVTV; listed as Homo sapiens) [compound 563] | “+++” (≥50 = +++)
21 | 564 (TVTNAVVTV; listed as Homo sapiens) [compound 564] | “+++” (≥50 = +++)
22 | 565 (ALQETPTSV; listed as Homo sapiens) [compound 565] | “++” (≥20% = ++)
23 | 566 (VIADGGIQNV; listed as Homo sapiens) [compound 566] | “++” (≥20% = ++)
24 | 567 (SLLPLDDIVRV; listed as Homo sapiens) [compound 567] | “+++” (≥50 = +++)
25 | 568 (TLYDIAHTPGV; listed as Homo sapiens) [compound 568] | “++++” (≥75% = ++++)
26 | 569 (KLVDRTWTL; listed as Homo sapiens) [compound 569] | “+++” (≥50 = +++)

Row | Substance | Peptide exchange
27 | 570 (ALANQIPTV; listed as Homo sapiens) [compound 570] | “++” (≥20% = ++)
28 | 571 (LLLTTIPQI; listed as Homo sapiens) [compound 571] | “+++” (≥50 = +++)
29 | 572 (ALADLIEKELSV; listed as Homo sapiens) [compound 572] | “+++” (≥50 = +++)
30 | 573 (ILVANAIVGV; listed as Homo sapiens) [compound 573] | “+++” (≥50 = +++)
31 | 574 (YLLQEPPRTV; listed as Homo sapiens) [compound 574] | “++” (≥20% = ++)
32 | 575 (YLISQVEGHQV; listed as Homo sapiens) [compound 575] | “+++” (≥50 = +++)
33 | 576 (ILLNNSGQIKL; listed as Homo sapiens) [compound 576] | “++++” (≥75% = ++++)
34 | 577 (VMFEDGVLMRL; listed as Homo sapiens) [compound 577] | “+++” (≥50 = +++)
35 | 578 (FLDPGGPMMKL; listed as Homo sapiens) [compound 578] | “+++” (≥50 = +++)
36 | 579 (NLMEMVAQL; listed as Homo sapiens) [compound 579] | “++” (≥20% = ++)
37 | 580 (LLMENAERV; listed as Homo sapiens) [compound 580] | “++” (≥20% = ++)
38 | 582 (TLCDVILMV; listed as Homo sapiens) [compound 582] | “+++” (≥50 = +++)
39 | 583 (ILANDGVLLAA; listed as Homo sapiens) [compound 583] | “+++” (≥50 = +++)
40 | 584 (ALAEVAAMENV; listed as Homo sapiens) [compound 584] | “+++” (≥50 = +++)
41 | 585 (ALWDLAADKQTL; listed as Homo sapiens) [compound 585] | “++++” (≥75% = ++++)
42 | 586 (KLKPGDLVGV; listed as Homo sapiens) [compound 586] | “+++” (≥50 = +++)
43 | 587 (VMNDRLYAI; listed as Homo sapiens) [compound 587] | “+++” (≥50 = +++)
44 | 588 (SLLPLSHLV; listed as Homo sapiens) [compound 588] | “+++” (≥50 = +++)
45 | 589 (KLYPQLPAEI; listed as Homo sapiens) [compound 589] | “+++” (≥50 = +++)
46 | 590 (SLIEKLWQT; listed as Homo sapiens) [compound 590] | “++” (≥20% = ++)
47 | 591 (SMAELDIKL; listed as Homo sapiens) [compound 591] | “+++” (≥50 = +++)
48 | 592 (RLLSAAENFL; listed as Homo sapiens) [compound 592] | “+++” (≥50 = +++)
49 | 593 (GLPRFGIEMV; listed as Homo sapiens) [compound 593] | “+++” (≥50 = +++)
50 | 594 (IMLKGDNITL; listed as Homo sapiens) [compound 594] | “+++” (≥50 = +++)
51 | 595 (VLLSIYPRV; listed as Homo sapiens) [compound 595] | “+++” (≥50 = +++)
52 | 596 (ALLDQTKTLAESAL; listed as Homo sapiens) [compound 596] | “+++” (≥50 = +++)

Row | Substance | Peptide exchange
53 | 597 (KLLEGQVIQL; listed as Homo sapiens) [compound 597] | “+++” (≥50 = +++)
54 | 598 (FLFPHSVLV; listed as Homo sapiens) [compound 598] | “+++” (≥50 = +++)
55 | 599 (YLLNDASLISV; listed as Homo sapiens) [compound 599] | “+++” (≥50 = +++)
56 | 600 (ALAAPDIVPAL; listed as Homo sapiens) [compound 600] | “+++” (≥50 = +++)
57 | 601 (SAFPFPVTV; listed as Homo sapiens) [compound 601] | “+++” (≥50 = +++)
58 | 602 (YLLEQIKLIEV; listed as Homo sapiens) [compound 602] | “++++” (≥75% = ++++)
59 | 604 (SILDRDDIFV; listed as Homo sapiens) [compound 604] | “+++” (≥50 = +++)
60 | 605 (KLYEAVPQL; listed as Homo sapiens) [compound 605] | “+++” (≥50 = +++)
61 | 606 (ALWETEVYI; listed as Homo sapiens) [compound 606] | “+++” (≥50 = +++)
62 | 607 (RLYSGISGLEL; listed as Homo sapiens) [compound 607] | “+++” (≥50 = +++)
63 | 608 (SLLSVSHAL; listed as Homo sapiens) [compound 608] | “+++” (≥50 = +++)
64 | 609 (ALWKQLLEL; listed as Homo sapiens) [compound 609] | “+++” (≥50 = +++)
65 | 610 (LLAPTPYIIGV; listed as Homo sapiens) [compound 610] | “+++” (≥50 = +++)
66 | 611 (YLLDDGTLVV; listed as Homo sapiens) [compound 611] | “++++” (≥75% = ++++)
67 | 612 (YLYNEGLSV; listed as Homo sapiens) [compound 612] | “+++” (≥50 = +++)
68 | 613 (RLLPPGAVVAV; listed as Homo sapiens) [compound 613] | “+++” (≥50 = +++)
69 | 614 (LLLPDQPPYHL; listed as Homo sapiens) [compound 614] | “+++” (≥50 = +++)
70 | 615 (VLPPDTDPA; listed as Homo sapiens) [compound 615] | “++” (≥20% = ++)
71 | 616 (VLIDEVESL; listed as Homo sapiens) [compound 616] | “+++” (≥50 = +++)
72 | 617 (ALMYESEKVGV; listed as Homo sapiens) [compound 617] | “+++” (≥50 = +++)
73 | 618 (VLFDSESIGIYV; listed as Homo sapiens) [compound 618] | “+++” (≥50 = +++)
74 | 619 (ALQDRVPLA; listed as Homo sapiens) [compound 619] | “+++” (≥50 = +++)
75 | 620 (KLLNKIYEA; listed as Homo sapiens) [compound 620] | “++++” (≥75% = ++++)
76 | 621 (VLMDRLPSLL; listed as Homo sapiens) [compound 621] | “++++” (≥75% = ++++)
77 | 622 (RLLGEEVVRVLQA; listed as Homo sapiens) [compound 622] | “+++” (≥50 = +++)
